According to patent US20250376696A1:

Target: SIRPα of non-obese diabetic (NOD) mice (mouse (NOD strain)) (UniProt O89094)
Assay: cell-based or functional assay

Chain of UniProt O89094 (O89094 168-257): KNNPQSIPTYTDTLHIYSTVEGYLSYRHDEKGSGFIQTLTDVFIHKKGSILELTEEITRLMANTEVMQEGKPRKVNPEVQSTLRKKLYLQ

## human CD47 on lentiviral vector (LV) particles (from UniProt Q08722 19-323) (receptor)
  LV copies in plasmacytoid dendritic cells (pDC), NOD versus C57BL/6 mice: > 10 fold
  LV copies per cell (vector copy number, VCN) in sorted hepatocytes, NOD versus C57BL/6 mice: 4 fold
  VCN in liver macrophages, NOD versus C57BL/6 mice: 30 fold
  VCN in spleen, NOD versus C57BL/6 mice: 5 fold
